# Data published in the nanobody polyreactivity screen of Harvey et al. (2022).
# Experiment: yeast display, Sf9 membrane polyspecificity reagent, FACS + sequencing; frameworks hold sequencing errors
# Method in brief: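 Nanobodies came from a synthetic yeast display library in Saccharomyces cerevisiae BJ5465, induced with galactose for 36–48 hours and stained for 1 hour at 4 °C with 10% biotinylated, detergent-solubilized Sf9 membrane reagent. Cells were enriched on streptavidin microbeads and then FACS-sorted, with low and high (top ~1%) gates set on anti-HA fluorescence for expression and streptavidin fluorescence for reagent binding. Each polyreactivity label reflects the gate a clone came from. Genes were amplified by colony PCR, sequenced by MiSeq 2 × 250 and filtered by CDR length.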
row,Sequence,polyreactivity (PSR sort gate)
1,QVQLVESGGGLVQAGGSLRLSCAASGSIFVGYAMGWYRQARGKERELVAAITGSGTRTYYADSVKGRFTISRDNAKNTVYLQMNSLKPEDTAVYYCAAVTYHGNPSEYYPDTVGFYYWGQGTQVTVSS,low polyreactivity
2,QVQLVESGGGLVQAGGSLRLSCAASGGTSRSYAMGWYRQAPGKERELVAAISWRGGRTYYADSVKGRFTISRDNAKNTVYLQMNSLKPEDTAVYYCAARQYSQEPYDYWGQGTQVTVSS,high polyreactivity
3,QVQLVESGGGLVQAGGSLRLSCAASGRIFYAYVMGWYRQAPGKERELVADITSSGSTNYADSVKGRFTISRDNAKNTVYLQMNSLKPEDTAVYYCAKVPYAYQVRRKFGYWGQGTQVTVSS,low polyreactivity
4,QVQLVESGGGLVQAGGSLRLSCAASGFTFGPYDMGWYRQAPGKERELVAVIIGGDSTNYADSVKGRFTISRDNAKNSVYLQMNSLKPEDTAVYYCAADYIDRVGWMDYWGQGTQVTVSS,low polyreactivity
5,QVQLVESGGGLVQAGGSLRLSCAASGFIFQKYAMGWYRQAPGKERELVAAISRSGGSTYYADSVKGRFTISRDNAKNTDYLQMNSLKPEDTAVYYCAARYKGRAFWMDYWGQGTQVTVSS,high polyreactivity
6,QVQLVESGGGLVQAGGSLRLSCAASGIIFGDKAMGWYRQAPGKERELVAAITIGGTSTYYADSVKGRFTISRDNAKNTVYLQMNRLKPEDTAVYYCAKTILYDCDYWGQGTQVTVSS,low polyreactivity
7,QVQLVESGGGLVQAGGSHRLSCAASGRPSAVNALGWSRQAPGKERELVAAITYGGDSTFYADSVKGRFTISRDNAKNTVYLQMNSLKPEDTAVYYCNADIWFIWHSFGWGYDYWGQGTQVTVSS,low polyreactivity
8,QVQLVESGGGLVQAGGSLRLSCAASGRTIGYYAMGWYRQAPGKERELVAAITWSGGNTYYADSVKGRFTISRDNAKNTVYLQMNSLKPEDTAVYYCNALYLWGMDYWGQGTQVTVSS,low polyreactivity
9,QVQLVESGGGIVQAGGSLRLSCAASGFIFPDYGMGWYRQAPGKERELVAAISRNGVSTYYADSVKGRFTISRDNAKNTVYLQMNSLKPEDTAVYYCAARYYRIRRVSKSGYYWGQGTQVTVSS,low polyreactivity
10,QVQLVESGGGLVQAGGSLRLSCAASGRTFYSYAMGWYRQAPGKEWVLVAAISKRGTSTYYADSVKGRFTISRDNAKNTVYLQMNTLKPEDTAVYYCAAAYRGREVEYTSWGQGTQVTVSS,high polyreactivity
11,QVQLVESGGGLVQAGGSLRLSCAASGSILYSYPMGWYRQAPGKERELVAAITGDGASTTYADSVKGRFTISRDNAKNTVYLQLNSLKPEDTAVYYCKAGRESDDVSEGSQRICQFDYWGPGTQVTVSS,low polyreactivity
12,QVQLVESGGGLVQAGGSLRLSCAASGNTFYFYAMGWYRQAPGKERELVASITRRGGSTYYADSVKGRFTISRDNAKNTVYLQMNSLKPEDTAVYYCARYPARYGGYYDYDYWGQGTQVTVSS,high polyreactivity
13,QVQLVESGGGLVQAGGSLRLSCAASGSISVGYTMGWYRQAPGKEREFVAVITGTGGRTRYSDSVKGRFTISRDNAKNTVYLQMNSLKPEDTAGYYCAAKIRWRGALYDYWGQGTQVTVSS,high polyreactivity
14,QVQLVESGGGLVQAGGSLRLSCAASGSIFVTYAMGWYRQAPWKDWELVAAISTSGGSTYADSVKGRFTISRDNAKNTVYLQMNSLKPVDTAVYYCNADDPGYAVPWYWFKYDYWGQGTQVTVSS,low polyreactivity
15,QVQLVESGGGLVQAGGRLLLSCAASGSTFDAYAMGWYRQAPGKERELVAAITNGGSTYYADSVKGRFTISRDNAKNTVYFQMNCLKPEDTAVYYCNAQHRTVWGIFGRFNYWGLGTQVTVSS,low polyreactivity
16,QVQLVESGGGLVQAGGSLRLSCAASGSTFGVNALGWYRQAPGKERELVAVITRSGGSTYYADSVKGRFTISRDNAKNTVYLQMNSLKPEDTAVYYCAKSGVVDWGQGTQVTVSS,low polyreactivity
17,QVQLVESGGGLVQAGGSLRLSCAASGSIFYEYAMGWYRQAPGKERELVAAINWDGGTYYADSVKGRFTISRDNAKNTVYLQMNSLKPEDTAVYYCAKPYDWGVYSQSDSDYWGQGTQVTVSS,low polyreactivity
18,QVQLVESGGGLVQAGGSLRLSCAASGRTFATYAMGWYRQAPGKERELVAAITSGGSTNYADSVKGRFTISRDNAKNTVYLQMNSLKPEDTAVYYCNAYKTNRGSGPWYTGRYDYWGQGTQVTVSS,low polyreactivity
19,QVQLVESGGGLVQAGGSLRLSCAASGSTFEYYAMGWYRQAPGKERELVAAISWSGGSTYYADSVKGRFTISRDNAKNTVYLQMNSLKPEDTAVYDCATDTGTSFYGINYGYDYWGQGTQVTVSS,low polyreactivity
20,QVQLVESGGGLVQAGGSLRLSCADSGNTIYGYAMGWNRQAPGKERELVASITLSGDSTYYADSVKGRFTISRDNAKNTVFLQMNRLKPEDTSVYYCSGVYTYPLGYYHYTYDYWGQGSQVTVSS,low polyreactivity

row,Sequence,polyreactivity (PSR sort gate)
1,QVQLVESGGGLVQAGGSLRLSCAASGITFYRYAMGWYRQAPGKERELVAAISWSGGRTYYADSVKGRFTISRDNAKNTVYLQMNSLKPEDTAVYYCNAYLYPYTRLDYWGQGTQVTVSS,high polyreactivity
2,QVQLVESGGGLVQAGGSLRLSCAASGITFPSYTMGWYRQAPGKERELVATIRNGGSTYYADSVKGRFTISRDNAKNTVYLHMNSLKPEDTAVYYCAAVPLWDYKVFYYLLYDYWGQGTQVTVSS,low polyreactivity
3,QVQLVESGGGLVQAGGSLRLSCAASGSIFRGYAMGWYRQAPGKERELVAAINTSGGRTYYADSVKGRFTISRDNAKNTVYLQMNSLKPEDTAVYYCATEYYQAKREDYWGQGTQVTVSS,high polyreactivity
4,QVQLVESGGGLVQAGGSLRLSCAASGRIFRRYASGWYRQAPGKEMELDADITYGVDSTYYADSVKGRFTISRDNAKNTVYLQMNSLKPEDTAVYYCIADRTEDMLYRFVGVTYGYWGQGTQVTVSS,high polyreactivity
5,QVQLVESGGGLVQAGGSLRLSCAASGRTFYPYAMGWYRQAPGKEREFVAVINRSVGSPYYADSVNGRFTISRDNAKNTVYLQMNSLKPEDTAVYYCAAREPLSYYVGGDYWGQGTQVTVSS,low polyreactivity
6,QVQLVESGGGFVQAGGSLRLSCAASGSIFYYNAMGWYRQAPGKERELVAAIDWSGGITYYADSVKGRFTISRDNAKNTVYLQMNSLKPEDTAVYYCNVPMPPAKAEYGYWGQGTQVTVSS,high polyreactivity
7,QVQLVESGGGLVQAGGSLRLSCAASGRTFPRYAMGWYRPAAGKVWELVAAISVRAGITYYADSVKGRFTISRDNAKNTVYFQMNSLKPEDTAVYYCAKDHWTTSYDEGDYWGQGTQETVSS,low polyreactivity
8,QVQIVESGGGLVQAGGSLRLSCAASGRTFWSYAMVWYRPAPGKEWELVATIKDSDGSTYADSVKGRFKISRDNAKNTVYLQMNSLKPEDTAVYYWIAKTRAGYYFGYGYWGQVTQVTVSS,low polyreactivity
9,QVQLVESGGGLVQAGGSLRLSWAASGSIFFYYTIGWYRQAPGKERELVAAISVGGSTYYADSVKGRFTISRDNAKNTVYLQMNSLKPEDTAVYYSNAVPAKGFVTVVRYYYWGQGTQVTVSS,low polyreactivity
10,QVQLVESGGGLVQAGGSLRLSSAASGSIFSSYAMGWYRQAPGKERELVAAISTGGSTYYADSVKGRFTISRDNAKNTVYLQMNSLKPEDTAVYYCAAGIMDLKLYFSSYDYWGQGTQVTVSS,low polyreactivity
11,QVQLVESGGGLVQAGGSLRLSCAASGNILAWYAMGWYRQAPGKERELVADISSRGGSTYYADSVKRRFTISRDNAKYTVYLQMKSLKPEDTAVYYCAAVWYWNQDYEYWGQGTQVTVSS,low polyreactivity
12,QVQLVESGGGLVQAGGSLRLICSASGLISRINAMGWYRQAPGKERELVAAISSGGSTNYADSVKGRFTISRDNAKNTVYLQMNSLKPEDTAVYYCAAEVFRVAWYDYWGQGTQVTVSS,high polyreactivity
13,QVQLVESGGGLVQAGGSLRLSCAASGFTLAFYGMGWYRQAPGKERELVAAISWSGDSTYYADSVKGRFTISRDNAKNTVYLQMNSLKPEDTAVYYCAKPKRRFYDRPSDYWGQGTQVTVSS,high polyreactivity
14,QVQLVQSAAGLVHAGGSLRLSCAASGIIFYGYAMVSYRQAPGKERELVAAITSYDGSTYYADSVKGRFTISRDNAKNTVYLQMNSLKPEDTAEYYCAADYSTYEGWYWFDYWGQGSQVTVSS,high polyreactivity
15,QDQLVESGGGLVQAGGSLRLSCAASGSTFSRYAMGWYRQAPGKERELVAAITSSGGSTYYADSVKGRFTISRDNAKNTVYLQMNSLKPEDTAVYYCAASYQVRYDYWGQGTQVTVSS,high polyreactivity
16,QVQLVESGGGLVQAGGSLRLSCAASGRTFAWYTMGWYRQAPGKERELVASITKRGGRTYYADSVKGRFTISRDNAKNTVYLQMNSLKPEDTAVYYCAAGASQGRGTVTFDYWGQGTQVTVSS,high polyreactivity
17,QVQLVESGGGLVQAGGSLRLSCAASGSIFSPYAMGWYRQAPGKERELVAAISYGVGNTYYADSVKGRFTISRDNAKNTVYLQMNSLIPEDTAVYYCAAEEYDYVFPHYFTKGYYWGQGTQVTVSS,high polyreactivity
18,QVQLVESGGGLVQAGGSLRLSCAASGRTFVYYAMGWYRQAPGKERELVAAISRSGSTYYADSVKGRFTISRDNAKNTVYLQMNSLKPEDTAVYYCAARSVYTGRPYYYWGQGTQVTVSS,high polyreactivity
19,QVQLVESGGGLVQAGGSLRLSCAASGSTFKRYAMGWYRQAPGKERELVAAIRRGGITNYADSVKGRFTISRDNAKNTVYLQINSLKPEDTAVYYWAATSIYSNYYREGYWGQGTQVTVSS,low polyreactivity
20,QVQLVESGGGLVQAGGSLRLSCAASGRTFSKYAMGWYRQAPGKERELVAAISSTGGSTYYADSVKGRFTISRDNAKNTVYLQMNSLIPEDTAVYYCATEVYWFHSRAYYYWGQGSQVTVSS,high polyreactivity
